Test results: PMC5591402
Residue numbers refer to the chain shown, from its start. Names and notes keep the numbering of the source. Blank lines part the entries; values can stand above or below the binder they belong to.

Target: T1, TAMRA-labeled α-synuclein peptide
T1 chain: GYQDYEPEA
Assay: fluorescence polarization
Settings: chain shown with the change;, read off a plot

Ka (parent: est. 8.6 x10^7 M^-1): 9.6 x10^7 M^-1
B1: N2.17 VHH F100fS (protein)
chain: QGQLVESGGGSVQAGGSLRLSCAASGIDSSSYCMGWFRQRPGKEREGVARINGWGGVKTAYADSVKDRFTISRDNAENTVYLQMNSLKPEDTAIYYCAAKSSPGYCGGTWSNFGYWGQGTQVTVSS

Ka (parent: est. 8.6 x10^7 M^-1): 3.3 x10^7 M^-1
B2: N2.17 VHH W52bL (protein)
chain: B1 chain with W54L, S111F

Ka (parent: est. 13 x10^7 M^-1): 6.7 x10^7 M^-1
B3: N2.12 VHH S96F (protein)
chain: B1 chain with A49G, G55R, V57I, S101F

Ka (parent: est. 8.6 x10^7 M^-1): 3.8 x10^7 M^-1
B4: N2.17 VHH T100dS (protein)
chain: B1 chain with T109S, S111F

Ka (parent: est. 13 x10^7 M^-1): 13 x10^7 M^-1
B5: N2.12 VHH G49A (protein)
chain: B1 chain with G55R, V57I

Ka (parent: est. 13 x10^7 M^-1): 8.5 x10^7 M^-1
B6: N2.12 VHH T100dS (protein)
chain: B1 chain with A49G, G55R, V57I, T109S

Ka (parent: est. 8.6 x10^7 M^-1): 1.6 x10^7 M^-1
B7: N2.17 VHH S96F (protein)
chain: B1 chain with S101F, S111F

Ka (parent: est. 13 x10^7 M^-1): 7.1 x10^7 M^-1
B8: N2.12 VHH R53G (protein)
chain: B1 chain with A49G, V57I

Ka (parent: est. 13 x10^7 M^-1): 6.2 x10^7 M^-1
B9: N2.12 VHH W52bL (protein)
chain: B1 chain with A49G, W54L, G55R, V57I
